Data published in the supplement of paper PMC7877785.
± gives the uncertainty stated by the source.

Assay: self-splicing fitness, log relative to wild type (ln ratio); higher = more splicing; Tetrahymena group I intron in knt gene, E. coli kanamycin selection, DiMSum; sequences stand for … in CUCUCU…GGAGGGAAAAGUUAUCAGGCAUGCACCUGGUAGCUAGUCUUUAAACCAAUAGAUUGCAUCGGUUUAAAAGGCAAGACCGUCAAAUUGCGGGAAAGGGGUCAACAGCCGUUCAGUACCAAGUCUCAGGGGAAACUUUGAGAUGGCCUUGCAAAGGGUAUGGUAAUAAGCUGACGGACAUGGUCCUAACCACGCAGCCAAGUCCUAAGUCAACAGAUCUUCUGUUGAUAUGGAUGCAGUUCACAGACUAAAUGUCGGUCGGGGAAGAUGUAUUCUUCUCAUAAGAUAUAGUCGGACCUCUCCUUAAUGGGAGCUAGCGGAUGAAGUGAUGCAACACUGGAGCCGCUGGGAACUAAUUUGUAUGCGAAAGUAUAUUGAUUAGUUUUGGAGUACUCGUGGUCG
How it was run: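 Library with all eight P1ex-region intron nucleotides randomised, intron inside the knt kanamycin-resistance gene on pET-22b(+), in E. coli BL21(DE3). Cells grew overnight at 37°C or 30°C on LB agar with or without 25 μg/mL kanamycin (plus 100 μg/mL carbenicillin, 50 μM IPTG, 0.2% rhamnose), in six replicate transformations. Pooled colonies were amplicon-sequenced on Illumina HiSeq 2500. DiMSum fitness is the error-weighted combination of wild-type-normalised replicate fold changes, kanamycin versus none.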

| Sequence | self-splicing fitness (ln) (30 °C) | self-splicing fitness (ln) (37 °C) |
| --- | --- | --- |
| GUAAAGCAAUAUUACGGGUU | -1.72 ± 0.13 | -1.86 ± 0.18 |
| GUAAAGCAAUAUUACGGUCA | -0.163 ± 0.072 | 0.362 ± 0.097 |
| GUAAAGCAAUAUUACGUGAC | -2.09 ± 0.076 | -0.885 ± 0.078 |
| GUAAAGCAAUAUUACGUGGU | -3.26 ± 0.12 | -1.11 ± 0.095 |
| GUAAAGCAAUAUUACGUGUU | -2.69 ± 0.098 | -0.867 ± 0.11 |
| GUACAGCAAUAUUACGAACG | -1.92 ± 0.17 | -1.22 ± 0.19 |
| GUACAGCAAUAUUACGACAA | -1.77 ± 0.14 | -0.826 ± 0.12 |
| GUACAGCAAUAUUACGACAU | -0.299 ± 0.012 | 0.127 ± 0.032 |
| GUACAGCAAUAUUACGACCU | -0.715 ± 0.21 | -0.152 ± 0.24 |
| GUACAGCAAUAUUACGACUC | -0.243 ± 0.06 | 0.473 ± 0.068 |
| GUACAGCAAUAUUACGAGUU | -1.7 ± 0.094 | -1.36 ± 0.12 |
| GUACAGCAAUAUUACGAUAC | -2.35 ± 0.21 | -2.52 ± 0.22 |
| GUACAGCAAUAUUACGAUCA | -1.83 ± 0.13 | -0.392 ± 0.2 |
| GUACAGCAAUAUUACGCAUC | -3.74 ± 0.23 | -1.36 ± 0.19 |
| GUACAGCAAUAUUACGCCAA | – | -1.7 ± 0.29 |
| GUACAGCAAUAUUACGCCCG | -1.85 ± 0.14 | -1.38 ± 0.2 |
| GUACAGCAAUAUUACGCCGC | -3.01 ± 0.24 | -2.46 ± 0.45 |
| GUACAGCAAUAUUACGCUGA | -2.47 ± 0.12 | -1.33 ± 0.1 |
| GUACAGCAAUAUUACGGAAU | -2.76 ± 0.11 | -1.46 ± 0.12 |
| GUACAGCAAUAUUACGGCAU | -0.301 ± 0.081 | -0.278 ± 0.11 |
| GUACAGCAAUAUUACGGCGU | -0.577 ± 0.069 | 0.482 ± 0.085 |
| GUACAGCAAUAUUACGGGAA | -3.59 ± 0.25 | -2.24 ± 0.22 |
| GUACAGCAAUAUUACGGGAC | -1.7 ± 0.12 | -1.22 ± 0.14 |
| GUACAGCAAUAUUACGGGGG | -3.36 ± 0.12 | -3.03 ± 0.15 |
| GUACAGCAAUAUUACGGUCA | -0.796 ± 0.068 | -0.618 ± 0.082 |

| Sequence | self-splicing fitness (ln) (30 °C) | self-splicing fitness (ln) (37 °C) |
| --- | --- | --- |
| GUACAGCAAUAUUACGGUCG | -1.36 ± 0.058 | -0.547 ± 0.084 |
| GUACAGCAAUAUUACGUCAC | – | -2.14 ± 0.31 |
| GUACAGCAAUAUUACGUCAG | -4.26 ± 0.29 | -2.99 ± 0.26 |
| GUACAGCAAUAUUACGUCGG | -3.45 ± 0.27 | -2.4 ± 0.25 |
| GUACAGCAAUAUUACGUCUA | -1.11 ± 0.091 | -0.268 ± 0.081 |
| GUACAGCAAUAUUACGUGAG | -1.42 ± 0.074 | -0.954 ± 0.093 |
| GUACAGCAAUAUUACGUGGA | -4.34 ± 0.29 | -2.52 ± 0.14 |
| GUACAGCAAUAUUACGUGUG | -2.12 ± 0.087 | -1.45 ± 0.1 |
| GUACAGCAAUAUUACGUUGA | -2.77 ± 0.12 | -1.59 ± 0.095 |
| GUAGAGCAAUAUUACGAAAA | – | -0.266 ± 0.44 |
| GUAGAGCAAUAUUACGAAUU | -2.35 ± 0.21 | -2.01 ± 0.35 |
| GUAGAGCAAUAUUACGACAG | -3.49 ± 0.33 | -1.86 ± 0.3 |
| GUAGAGCAAUAUUACGACUC | 0.512 ± 0.23 | 0.484 ± 0.38 |
| GUAGAGCAAUAUUACGAGCU | -2.67 ± 0.22 | -1.66 ± 0.23 |
| GUAGAGCAAUAUUACGCCAU | -1.22 ± 0.39 | – |
| GUAGAGCAAUAUUACGCGCU | -2.69 ± 0.32 | -2.85 ± 0.32 |
| GUAGAGCAAUAUUACGCUAG | -0.754 ± 0.13 | 0.329 ± 0.21 |
| GUAGAGCAAUAUUACGCUCU | -3.31 ± 0.43 | – |
| GUAGAGCAAUAUUACGGACG | -2.8 ± 0.36 | -1 ± 0.3 |
| GUAGAGCAAUAUUACGGAGG | – | -1.69 ± 0.43 |
| GUAGAGCAAUAUUACGGGGG | -2.82 ± 0.26 | -2.22 ± 0.3 |
| GUAGAGCAAUAUUACGGUAG | -2.36 ± 0.12 | -1.24 ± 0.13 |
| GUAGAGCAAUAUUACGUAGA | -4.79 ± 0.41 | -1.55 ± 0.25 |
| GUAGAGCAAUAUUACGUGAA | -1.86 ± 0.17 | -1.87 ± 0.2 |
| GUAUAGCAAUAUUACGAAGU | -3.25 ± 0.21 | -1.81 ± 0.18 |

| Sequence | self-splicing fitness (ln) (30 °C) | self-splicing fitness (ln) (37 °C) |
| --- | --- | --- |
| GUAUAGCAAUAUUACGAAUC | -2.37 ± 0.22 | -0.29 ± 0.17 |
| GUAUAGCAAUAUUACGACUU | -0.268 ± 0.072 | -0.0307 ± 0.085 |
| GUAUAGCAAUAUUACGAGUA | -1.18 ± 0.19 | -1.77 ± 0.22 |
| GUAUAGCAAUAUUACGAGUG | -2.23 ± 0.15 | -2.47 ± 0.22 |
| GUAUAGCAAUAUUACGAUCG | -1.69 ± 0.33 | -0.878 ± 0.31 |
| GUAUAGCAAUAUUACGCAUU | -2 ± 0.17 | -2.28 ± 0.29 |
| GUAUAGCAAUAUUACGCUGG | -2.35 ± 0.17 | -1.01 ± 0.18 |
| GUAUAGCAAUAUUACGGGCG | -2.27 ± 0.17 | -0.207 ± 0.18 |
| GUAUAGCAAUAUUACGGGCU | -2.86 ± 0.17 | -1.38 ± 0.19 |
| GUAUAGCAAUAUUACGGGUU | -3.05 ± 0.29 | -2.07 ± 0.27 |
| GUAUAGCAAUAUUACGGUGA | -2.53 ± 0.25 | -0.645 ± 0.18 |
| GUAUAGCAAUAUUACGUAGG | -3.15 ± 0.16 | -1.47 ± 0.14 |
| GUAUAGCAAUAUUACGUAGU | -2.17 ± 0.096 | -1.26 ± 0.095 |
| GUAUAGCAAUAUUACGUCAG | -3.96 ± 0.35 | -1.08 ± 0.18 |
| GUAUAGCAAUAUUACGUGGC | -3.62 ± 0.33 | -2.09 ± 0.28 |
| GUAUAGCAAUAUUACGUGUA | -1.79 ± 0.2 | -1.92 ± 0.18 |
| GUAUAGCAAUAUUACGUUGA | -2.87 ± 0.21 | -1.41 ± 0.18 |
| GUCAAGCAAUAUUACGAAAA | -1.95 ± 0.41 | -2.53 ± 0.31 |
| GUCAAGCAAUAUUACGAACC | -3.76 ± 0.42 | – |
| GUCAAGCAAUAUUACGAAUU | -3.06 ± 0.18 | -1.82 ± 0.17 |
| GUCAAGCAAUAUUACGACGG | -4.06 ± 0.37 | -1.71 ± 0.34 |
| GUCAAGCAAUAUUACGAGCG | -2.72 ± 0.16 | -1.2 ± 0.18 |
| GUCAAGCAAUAUUACGAGUA | -3.43 ± 0.19 | -1.98 ± 0.15 |
| GUCAAGCAAUAUUACGAUCG | -3.39 ± 0.19 | -2.88 ± 0.23 |
| GUCAAGCAAUAUUACGAUGU | -1.75 ± 0.042 | -0.404 ± 0.055 |

| Sequence | self-splicing fitness (ln) (30 °C) | self-splicing fitness (ln) (37 °C) |
| --- | --- | --- |
| GUCAAGCAAUAUUACGCAGG | -4.19 ± 0.36 | -2.3 ± 0.3 |
| GUCAAGCAAUAUUACGCCCA | -1.4 ± 0.15 | -1.11 ± 0.14 |
| GUCAAGCAAUAUUACGCCGG | – | -0.94 ± 0.36 |
| GUCAAGCAAUAUUACGCUAU | -4.05 ± 0.17 | -3.81 ± 0.15 |
| GUCAAGCAAUAUUACGCUGC | – | -3.33 ± 0.27 |
| GUCAAGCAAUAUUACGGAAG | -3.05 ± 0.15 | -1.68 ± 0.17 |
| GUCAAGCAAUAUUACGGCGC | -0.751 ± 0.11 | -0.437 ± 0.14 |
| GUCAAGCAAUAUUACGGCUA | -1.28 ± 0.073 | -0.658 ± 0.066 |
| GUCAAGCAAUAUUACGGGGG | -4.02 ± 0.46 | -2.86 ± 0.34 |
| GUCAAGCAAUAUUACGGGUA | -2.91 ± 0.12 | -1.45 ± 0.076 |
| GUCAAGCAAUAUUACGGGUU | -3.26 ± 0.11 | -2.31 ± 0.12 |
| GUCAAGCAAUAUUACGGUCA | -1.24 ± 0.12 | -0.86 ± 0.12 |
| GUCAAGCAAUAUUACGGUGG | -4.45 ± 0.15 | -3.19 ± 0.17 |
| GUCAAGCAAUAUUACGUAAU | -0.836 ± 0.044 | -0.385 ± 0.061 |
| GUCAAGCAAUAUUACGUACC | -0.597 ± 0.3 | -1.73 ± 0.43 |
| GUCAAGCAAUAUUACGUCUC | -0.66 ± 0.076 | -0.461 ± 0.097 |
| GUCAAGCAAUAUUACGUGAU | -4.06 ± 0.23 | -3.23 ± 0.27 |
| GUCAAGCAAUAUUACGUUCU | -1.88 ± 0.07 | -1.3 ± 0.087 |
| GUCAAGCAAUAUUACGUUGA | -2.64 ± 0.21 | -3.51 ± 0.4 |
| GUCCAGCAAUAUUACGACCU | -2.17 ± 0.19 | -1.13 ± 0.2 |
| GUCCAGCAAUAUUACGAGAC | -3.46 ± 0.23 | -1.82 ± 0.23 |
| GUCCAGCAAUAUUACGAGCC | -1.18 ± 0.15 | -0.519 ± 0.16 |
| GUCCAGCAAUAUUACGAUUC | -0.315 ± 0.055 | 0.0606 ± 0.075 |
